{"source": "patent US20220288160A1", "about": "(SYNKLINO A S, published 2022)", "key": {"US28": {"biological_target": "T1, US28 (human cytomegalovirus, UniProt P69332 1-354)", "T1 sequence": "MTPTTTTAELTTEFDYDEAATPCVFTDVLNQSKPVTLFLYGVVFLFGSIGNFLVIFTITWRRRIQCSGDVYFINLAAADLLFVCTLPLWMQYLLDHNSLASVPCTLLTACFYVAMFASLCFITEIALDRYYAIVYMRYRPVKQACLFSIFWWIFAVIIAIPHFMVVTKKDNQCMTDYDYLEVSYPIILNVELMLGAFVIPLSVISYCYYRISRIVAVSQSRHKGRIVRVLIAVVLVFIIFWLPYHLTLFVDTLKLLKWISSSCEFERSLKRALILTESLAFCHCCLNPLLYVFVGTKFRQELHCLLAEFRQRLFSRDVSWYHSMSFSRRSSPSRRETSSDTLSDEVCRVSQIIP", "experiment": "cell-based or functional assay"}, "CX3CR1": {"biological_target": "T2, CX3CR1 (human, UniProt P49238 1-355)", "T2 sequence": "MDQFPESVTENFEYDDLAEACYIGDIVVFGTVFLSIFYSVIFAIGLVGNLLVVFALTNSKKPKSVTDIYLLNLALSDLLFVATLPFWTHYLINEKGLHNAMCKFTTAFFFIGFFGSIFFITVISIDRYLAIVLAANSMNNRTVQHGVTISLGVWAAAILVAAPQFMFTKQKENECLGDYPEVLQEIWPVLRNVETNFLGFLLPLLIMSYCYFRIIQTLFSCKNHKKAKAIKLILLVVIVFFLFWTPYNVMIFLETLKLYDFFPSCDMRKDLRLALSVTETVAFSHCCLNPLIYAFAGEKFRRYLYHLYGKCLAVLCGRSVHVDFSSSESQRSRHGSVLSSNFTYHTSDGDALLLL", "experiment": "cell-based or functional assay"}}}
{"binder": "SYN001 (other) MQHHGVTKCNITCSKMTSKIPVALLIHYQQNQASCGKRAIILETRQHRLACADPKEQWVKDAMQHLDRQAAALTRNRQPRGWEQLEQSGYPVQRLVALYLAARLSWNQVDQVIRNALASPGSGGDLGEAIREQPEQARLALTLAAAESERFVRQGTGNDEAGAASGPADSGDALLERNYPTGAEFLGDGGDISFSTRGTQNWTVERLLQAHRQLEERGYVFVGYHGTFLEAAQSIVFGGVRARSQDLDAIWRGFYIAGDPALAYGYAQDQEPDARGRIRNGALLRVYVPRSSLPGFYRTGLTLAAPEAAGEVERLIGHPLPLRLDAITGPEEEGGRLETILGWPLAERTVVIPSAIPTDPRNVGGDLDPSSIPDKEQAISALPDYASQPGKPPKDE", "values": [{"measurement": "Log IC50 (cell killing)", "setting": "US28", "result": -10.7}, {"measurement": "Log IC50 (cell killing)", "setting": "CX3CR1", "result": -7.82}]}
